# Measurements taken from the DeepSol protein solubility set.
# Test: soluble on expression in E. coli; label from the status in PepcDB or PDB records
row,Sequence,soluble on expression in E. coli
1,MNDKTTRGRASKVDLLPPNIKSTLTMMLRDKQYSQAEILEEINNIIADSGLDESMQLSKTGLNRFASKMERFGKKIREAREVAEVWTKQLVEAPQSDIGKLLMEAVKTMAFDLTLNADEAVANDPKFLNQLALIANRIEQAQSISEERERKVRKEVAQQAADTAEKVISQAGLSADTVAQIKQQILGIA,not soluble
2,MNDLEKKFYELPELPYPYDALEPHISREQLTIHHQKHHQAYVDGANALLRKLDEARESDTDVDIKAALKELSFHVGGYVLHLFFWGNMGPADECGGEPSGKLAEYIEKDFGSFERFRKEFSQAAISAEGSGWAVLTYCQRTDRLFIMQVEKHNVNVIPHFRILLVLDVWEHAYYIDYRNVRPDYVEAFWNIVNWKEVEKRFEDIL,soluble
3,MNEDMEFFNRFSHMYLHGFKNLSDMFAEPATEHGITLDEFYILYDIAEAKGKIRLMDIAESHGVTRSAISRLIGRLLRKDYLYQEAEDHDRRNKVLKLTPEGARIEHEVFTELIQRNREWRQSFSLAKQYQTLNLVEEFMDKFVNEDASKQTKKATYADTDLKRAEA,not soluble
4,MNEEVRELERLVPAAATGDKTALQRIISIVYPQVLRYARTRLSGGRHPTPEDVAQEICLAVATSIAKFVDQGKPFMAFVYGIASNKVADAHRLYSRDLSNPTDEVPETEIDNDTPESFALLAAGSNRVQQLLDLLGDKPREILTLRVFVGLSAEETAEIVGSTPGAVRVAQHRALATLRKAIEQETGE,not soluble
5,MNELLQDRVPPQNIEAEQAVLGSIFLDADVLIEAMEYVEPKDFYRRSHQLIFQTMMTLSDRNEAIDVVTIKDRLEQENLLEDVGGLSYLSDLALAVPTAANVIYYAKIVEQKSLLRNLIQTATEIVTKGFEQGEDVESILDDAERSILEVSEKRNRSGFLSISDVLNTTIANIDQLYQNDEEITGLPTGYQALDKMTAGLQAEELIILAARPAVGKTAFALNIAQNVGTKTDKAVAIFSLEMGAESLVNRMLCAEGSIEASHLRTGQLSEEEWQNLIIAMGSLSRANIYIDDTPGIKITEIRAKCRKLAQEKGNLGLILIDYLQLIEGTGKENRQQEVSDISRQLKKLAKELKVPVIALSQLSRGVEQRQDKRPVLSDIRESGSIEQDADIVAFLYRDDYYDRGEGEDGDHEPPEVDNVVEVIIEKNRSGARGTVELLFIKEYNKFSSLSPRTEF,not soluble
6,MNEQIPHDKSLDNSLTLLKEGYLFIKNRTERYNSDLFQARLLGKNFICMTGAEAAKVFYDTDRFQRQNALPKRVQKSLFGVNAIQGMDGSAHIHRKMLFLSLMTPPHQKRLAELMTEEWKAAVTRWEKADEVVLFEEAKEILCRVACYWAGVPLKETEVKERADDFIDMVDAFGAVGPRHWKGRRARPRAEEWIEVMIEDARAGLLKTTSGTALHEMAFHTQEDGSQLDSRMAAIELINVLRPIVAISYFLVFSALALHEHPKYKEWLRSGNSREREMFVQEVRRYYPFGPFLGALVKKDFVWNNCEFKKGTSVLLDLYGTNHDPRLWDHPDEFRPERFAEREENLFDMIPQGGGHAEKGHRCPGEGITIEVMKASLDFLVHQIEYDVPEQSLHYSLARMPSLPESGFVMSGIRRKS,soluble
7,MNESIYTTPQSSKTPKSKSARYSSPYQVIDLNNESQEDLKTRLLEAENIIQDLRSERDALHESLVDKAGLNESVIIERSNKVSTQETRIYRRDVTLLEDDLKQKESQIRILQNRCLRLETEKQKMQDTISGYQEDLKENEIRIENLNSRLHKLEDELSAKTHEIFSIGEELKNKTMKLNEKNSQFQTKLAEISSENRNLERKVQKFREELIVKDQRSLEVHQDQENTQKVLKEVKQLSDRLDYLTPKRKDVSRIKERDDFLQFSAKIIEETMSELKLKNARLERELSEKEELVKVTKEELQELQKTVTQAMGDSEQATKYLHAENMKLTRQKADIRCDLLEARRNLKGFDEKREELEKQRDEALEDVRRITELKKNVEIELRSLKLLAEEREEQIDELKSRVAGYEVLRRDHEAVKNELAKAEEKLNKMGAHLVMADKQSSHFKTLKETAEGSRRRAIEQCNEMVARIRGLEASLENQRKVEQELEMVKAENVRQAKKIEFMKEEIQETHLDYREELSKLAKGGGSHEADSQRDSELRSAKKTIQEVKADNKKLQQILEEVRQNQSKVLEENVKLRKGMAEAIEKIEEFKRNWHSSREAGERLQLEAKENEEKVLKVEEELQEKRLEVLEKEELVNYLQSQINTKQTKQPKLSRRSTLMSTISEVDTSTYVREVEEVRALEEQREELQAYLAEKRKMADLQKSRSTANTTTLITSTTATEVSKSACELSYPPATMRHDIPHKWLEFRHYSVLSMKCSLCFVGITFFTKANKCSHCDVRVHASCAPRVNNTCGIPAQCATYYQDAQAVGGIGRMNGWLRVYRDDLPESTWTSLWAMMDSNHVKFYRDAGADNLENPYFTIDLNKEQWILRTGQEVAIPGDVMRNVLTIKLQTRSVHIVAPTPKSAERWAACLQNAQTRRMMKNSKPSSIAEYSCLLTLSLPNNLKIFKAHTIEDWILFATQTGLFFTSISQPRNPTRIAGPSSVTSLEVMSEINCVAMITNSNRQLALIPLDSLTLAMQSTHPSIRAEVLPEFGHVHTIRYHQQDGQRFLLVSDDTQLHIRKYNSTRDVFAHFAKLVVPEPVSFIESTPAGFIFASDTFYYVPLDHQSPSDVSARKLMPPRRSDYPVSAHAITANEILLAYQNHGIFVNLYGEQSRNQIIEWEKMPIEFAYTSPLLYIVHDDSIEIVQISKSSKETVLAEREVIACVNAHIVQSDGVLISVSSKDITEVHRFSATCRGTGTKRRGISPFNTLKRSKN,not soluble
8,MNFENDDIIHAPTTSSLILEERHDSELFRVYALILDGITDQVLLPGKKLTESELCRQMVCSRNTVRGALSLLAHDKIVDLQPNRGAFVHVPDLKEMQDVFNARIEMETMILNILADLPDLETRLKPLYAMIRREEEASGRGDRVGWNRLSNAFHVELARLVGNDVLFDIMNTLCARSSLIVAVAGVHREEKHAINTHTHSEHREILDLLLAGRRNRVVKILRRHLGNCMERLEKTLED,not soluble
9,MNFENLLIELGTEELPPKALRKLAESFLANFTEELTKADLAFKSAVWYAAPRRLALNITELAIAQADKIVEKRGPAVSSAFDAGGKPTKAAEGWARGNGITVDQAERLVTDKGEWLVYNAKVEGVETKSLVAAMAQRALDKLPIPKPMRWGSSKTQFIRPVHTATMLLGSELIEGELLGIKSARNIRGHRFMGTGFELDHADNYLTLLKEKGKVIADYESRKALIKADAEKAAAKIGGTADIEDALLEEVTSLVEWPVVLTASFEEKFLSVPSEALVYTMKGDQKYFPVFDDAGKLLPNFIFVANIESKDPAQIISGNEKVVRPRLADAEFFFNTDKKHTLESRLPSLETVLFQQQLGTLKDKVTRISALAAFIAEQTGANAVDAARAGLLSKTDLMTNMVMEFTDTQGTMGMHYARLDGETEAVALAMEEQYKPKFSGDTVPTAAVSCAVALADKLDTLVGIFGIGQAPKGAADPFALRRAAIGVLRIIVENKLPLDLVTLIAKAQELHGANLSNANASEEVLEFLMARFRAWYQDKGINVDVILAVLARRPTR,not soluble
10,MNFLDAVYNAGVVGAGGAGFPTHLKMTKEVGTFIVNGAECEPLLEVDKFLMREKTYELIKGMEIIAGNLKAARVVLGLKKKYKVEIKKLSETIKELDSNVELFLMDNFYPAGDEQIMVKDITGKSIPAGGIPLDVDTVVSNVGTVINVYEAIEEKPVTKKYVSVLGEVNNPVMLEVPIGTSFEECIKRAGGVKIKNYAVIEGGPMMGKIVHRDELAEKAVIKTTGALIILPEDHYVIKRKERPEAHILNESRAACIQCRMCTDMCPRYLIGHKLRPHRVMRAMGMGEQDEEILKEALICCECNVCELFACPMGISPKSTNTYLKGVFREKGVRYDGNKEIPSEHEMRDYRKIPVNRLIARLNLSRYYNNKVADLQELKADKVKIFLSQHIGKPAVPLVKEGDRVIEGQRIAEVGREEFGANIHASINGVVTKVEKSYIEIDGMV,not soluble
11,MNFQKLLKEAQKAQKKAAEVQERLERMTVVGSAQGLVEVEANGHGKILALRLKPEALKAFQDDPEGLEDLLLVAIQDAQTKAHELSEKEMAKELGGVGQMLGKLF,soluble
12,MNFRTGQPSDAAALAAISIEVWLGTYMRKGVSAFFAEYALNEFTSTKMASLLKDPNEHVIVSENEGGIDAFIRLGQGRAAPVSGCSTLEIATLYVQPRHHRRGLGRALLEQGLAYARQASAPSVWLTTNSENAPAIAFYLEQGFEKVGTTHFNIGDQAYLNDVFRRIVSM,soluble
13,MNFTRLLNQVLSTVQKKGNTFSDSPLNSFGGGALVAGVASMLLNGKNRKTITKIGSTAALGYLAYRGYQMWQQNKGRATVTQSDFQPAGETEETYSRTVLRTMIAAAASDGMIDEAERRTIEQESGTDPETAAWLAAEYRLPASIEDIAAAVGNDEALAAEAYLAARLVCADLSRKETVFLARLSQALKLDDNLVESLERQLGF,not soluble
14,MNGIHDVGGMDGFGKVMYVKEEEDIYFTHDWERLALGLVAGCMAQGLGMKAFDEFRIGIELMRPVDYLTSSYYGHWIATVAYNLVDTGVLDEKELDERTEVFSKKPDTKIPRREDPALVKLVEKALNDGLSPLREISASPRFKVGERIKTKNIHPTGHTRFPRYARDKYGVIDEVYGAHVFPDDAAHRKGENPQYLYRVRFEAEELWGYKQKDSVYIDLWESYMEPVSH,soluble
15,MNGNHSAPAIAIAVIDGCDGLWREVLLGIEEEGIPFRLQHHPAGEVVDSAWQAARSSPLLVGIACDRHMLVVHYKNLPASAPLFTLMHHQDSQAHRNTGNNAARLVKGIPFRDLNSEATGEQQDE,soluble
16,MNHKVHHHHHHIEGRHMKVLILGAGNIGRAIAWDLKDEFDVYIGDVNNENLEKVKEFATPLKVDASNFDKLVEVMKEFELVIGALPGFLGFKSIKAAIKSKVDMVDVSFMPENPLELRDEAEKAQVTIVFDAGFAPGLSNILMGRIFQELDLKEGYIYVGGLPKDPKPPLYYKITWSPRDLIEEYTRPARVIRNGKVSKVDPLSEVKKVKIGKFEFEAFISDGLRSMLETINSERLEEWTLRWPGHLEKIKVLRELGFFKPENLDFTLRVIEPLMRYETKDFSIMKVVGKGEEGEMEFFLYDEEDSMFSSMSRVTGFTAAIISRIVAENTCTFGVIPPEILGMREDTFRRIIDELKERGISIEGT,soluble
17,MNHLGKTEVFLNRFALRPLNPEELRPWRLEVVLDPPPGREEVYPLLAQVARRAGGVTVRMGDGLASWSPPEVLVLEGTLARMGQTYAYRLYPKGRRPLDPKDPGERSVLSALARRLLQERLRRLEGVWVEGLAVYRREHARGPGWRVLGGAVLDLWVSDSGAFLLEVDPAYRILCEMSLEAWLAQGHPLPKRVRNAYDRRTWELLRLGEEDPKELPLPGGLSLLDYHASKGRLQGREGGRVAWVADPKDPRKPIPHLTGLLVPVLTLEDLHEEEGSLALSLPWEERRRRTREIASWIGRRLGLGTPEAVRAQAYRLSIPKLMGRRAVSKPADALRVGFYRAQETALALLRLDGAQGWPEFLRRALLRAFGASGASLRLHTLHAHPSQGLAFREALRKAKEEGVQAVLVLTPPMAWEDRNRLKALLLREGLPSQILNVPLREEERHRWENALLGLLAKAGLQVVALSGAYPAELAVGFDAGGRESFRFGGAACAVGGDGGHLLWTLPEAQAGERIPQEVVWDLLEETLWAFRRKAGRLPSRVLLLRNGRVPQDEFALALEALAREGIAYDLVSVRKSGGGRVYPVQGRLADGLYVPLEDKTFLLLTVHRDFRGTPRPLKLVHEAGDTPLEALAHQIFHLTRLYPASGFAFPRLPAPLHLADRLVKEVGRLGIRHLKEVDREKLFFV,soluble
18,MNIATRPADYWQAIIFDFDGVIVESGDIKAQAFAELYRHHGETIAQAAVTYHRANGGMSRYLKFHYFQQNLLNYPPLTKEEEQELDRRFSELVMNAVISCQPVAGAEALLHRMVDQIPLFVASGTPESELRIIVEQRDLSRYFTEVRGSPRLKETLVADILSAYPLVPERVLMIGDALVDYESAHQNGIAFLGRVRPGDDNPFPESVEIVPDLCPVAI,soluble
